# Source: publication PMC4790104 (Analytical chemistry, 2016)
# T1: Psf2-SpA (S. cerevisiae (endogenous in budding …, UniProt P40359 1-213))
# T1 sequence (looked up): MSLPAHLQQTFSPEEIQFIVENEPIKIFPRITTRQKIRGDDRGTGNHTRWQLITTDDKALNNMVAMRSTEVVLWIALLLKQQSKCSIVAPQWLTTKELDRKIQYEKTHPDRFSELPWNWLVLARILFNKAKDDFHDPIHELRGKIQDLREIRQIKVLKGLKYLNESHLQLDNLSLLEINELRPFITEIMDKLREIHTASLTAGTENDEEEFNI
# Key:
# Psf2-SpA = molecular target: T1, Psf2-SpA; assay: native MS
# Nup84-HRV-SpA = Nup84-HRV-SpA (S. cerevisiae (endogenous in budding …, UniProt P52891 1-726)); assay: native MS
# Sequence of Nup84-HRV-SpA (S. cerevisiae (P52891 whole entry): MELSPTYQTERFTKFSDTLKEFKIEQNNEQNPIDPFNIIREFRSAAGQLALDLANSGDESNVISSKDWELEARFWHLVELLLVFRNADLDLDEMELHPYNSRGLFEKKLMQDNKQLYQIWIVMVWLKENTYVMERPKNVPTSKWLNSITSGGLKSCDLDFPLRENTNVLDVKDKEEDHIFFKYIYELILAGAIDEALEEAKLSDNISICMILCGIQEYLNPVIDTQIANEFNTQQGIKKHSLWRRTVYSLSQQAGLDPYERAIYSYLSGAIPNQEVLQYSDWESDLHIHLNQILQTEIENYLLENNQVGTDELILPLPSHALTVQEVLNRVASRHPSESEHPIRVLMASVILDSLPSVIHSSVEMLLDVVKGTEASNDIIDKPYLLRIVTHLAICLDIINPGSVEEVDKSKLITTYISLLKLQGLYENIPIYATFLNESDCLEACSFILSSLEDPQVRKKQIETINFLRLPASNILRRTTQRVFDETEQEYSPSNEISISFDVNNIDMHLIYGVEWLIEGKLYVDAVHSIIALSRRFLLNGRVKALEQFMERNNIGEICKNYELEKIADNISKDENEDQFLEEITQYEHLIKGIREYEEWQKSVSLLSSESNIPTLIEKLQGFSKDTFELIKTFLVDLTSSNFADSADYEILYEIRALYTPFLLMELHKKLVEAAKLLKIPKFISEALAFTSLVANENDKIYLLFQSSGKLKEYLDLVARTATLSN
Binder,stoichiometry N (Psf2-SpA),stoichiometry N (Nup84-HRV-SpA)
"Nup120 (natural protein, UniProt P35729 1-1037, looked up) MACLSRIDANLLQYYEKPEPNNTVDLYVSNNSNNNGLKEGDKSISTPVPQPYGSEYSNCLLLSNSEYICYHFSSRSTLLTFYPLSDAYHGKTINIHLPNASMNQRYTLTIQEVEQQLLVNVILKDGSFLTLQLPLSFLFSSANTLNGEWFHLQNPYDFTVRVPHFLFYVSPQFSVVFLEDGGLLGLKKVDGVHYEPLLFNDNSYLKSLTRFFSRSSKSDYDSVISCKLFHERYLIVLTQNCHLKIWDLTSFTLIQDYDMVSQSDSDPSHFRKVEAVGEYLSLYNNTLVTLLPLENGLFQMGTLLVDSSGILTYTFQNNIPTNLSASAIWSIVDLVLTRPLELNVEASYLNLIVLWKSGTASKLQILNVNDESFKNYEWIESVNKSLVDLQSEHDLDIVTKTGDVERGFCNLKSRYGTQIFERAQQILSENKIIMAHNEDEEYLANLETILRDVKTAFNEASSITLYGDEIILVNCFQPYNHSLYKLNTTVENWFYNMHSETDGSELFKYLRTLNGFASTLSNDVLRSISKKFLDIITGELPDSMTTVEKFTDIFKNCLENQFEITNLKILFDELNSFDIPVVLNDLINNQMKPGIFWKKDFISAIKFDGFTSIISLESLHQLLSIHYRITLQVLLTFVLFDLDTEIFGQHISTLLDLHYKQFLLLNLYRQDKCLLAEVLLKDSSEFSFGVKFFNYGQLIAYIDSLNSNVYNASITENSFFMTFFRSYIIENTSHKNIRFFLENVECPFYLRHNEVQEFMFAMTLFSCGNFDQSYEIFQLHDYPEAINDKLPTFLEDLKSENYHGDSIWKDLLCTFTVPYRHSAFYYQLSLLFDRNNSQEFALKCISKSAEYSLKEIQIEELQDFKEKQHIHYLNLLIHFRMFEEVLDVLRLGHECLSDTVRTNFLQLLLQEDIYSRDFFSTLLRLCNAHSDNGELYLRTVDIKIVDSILSQNLRSGDWECFKKLYCFRMLNKSERAAAEVLYQYILMQADLDVIRKRKCYLMVINVLSSFDSAYDQWILNGSKVVTLTDLRDELRGL",,1
"Psf1 (natural protein, UniProt Q12488 1-208, looked up) MYGDLGNKLVLEAKRTKQLYARSNQDVNLPMYHEDIIRNILKEVSNLRKNTEYLKEQQQLGMLDDKVAKCQYFVTLLCMERNKRCLLAYQRLRTDILDSMAWNNNGLDLMSSITFSQQDTNNLSHQEQEYLKEYCDLITDLKSGDLVDIDLSGSLVPPSDVFIDVRVLKDAGEIQTEYGVFNLIKDSQFFVRQSDVERLIQQGYLQKI",1,
"Nup145C (natural protein, UniProt P49687 606-1317, looked up) SIWGLVNEEDAEIDEDDLSKQEDGGEQPLRKVRTLAQSKPSDKEVILKTDGTFGTLSGKDDSIVEEKAYEPDLSDADFEGIEASPKLDVSKDWVEQLILAGSSLRSVFATSKEFDGPCQNEIDLLFSECNDEIDNAKLIMKERRFTASYTFAKFSTGSMLLTKDIVGKSGVSIKRLPTELQRKFLFDDVYLDKEIEKVTIEARKSNPYPQISESSLLFKDALDYMEKTSSDYNLWKLSSILFDPVSYPYKTDNDQVKMALLKKERHCRLTSWIVSQIGPEIEEKIRNSSNEIEQIFLYLLLNDVVRASKLAIESKNGHLSVLISYLGSNDPRIRDLAELQLQKWSTGGCSIDKNISKIYKLLSGSPFEGLFSLKELESEFSWLCLLNLTLCYGQIDEYSLESLVQSHLDKFSLPYDDPIGVIFQLYAANENTEKLYKEVRQRTNALDVQFCWYLIQTLRFNGTRVFSKETSDEATFAFAAQLEFAQLHGHSLFVSCFLNDDKAAEDTIKRLVMREITLLRASTNDHILNRLKIPSQLIFNAQALKDRYEGNYLSEVQNLLLGSSYDLAEMAIVTSLGPRLLLSNNPVQNNELKTLREILNEFPDSERDKWSVSINVFEVYLKLVLDNVETQETIDSLISGMKIFYDQYKHCREVAACCNVMSQEIVSKILEKNNPSIGDSKAKLLELPLGQPEKAYLRGEFAQDLMKCTYKI",,1

# The next lines start with the values.
stoichiometry N (Psf2-SpA),stoichiometry N (Nup84-HRV-SpA),Binder
1,,"Psf3 (natural protein, UniProt Q12146 1-194, looked up) MGYYDIDDVLADGTEFPCKFQYDIPGLGYLENNPGRPITKNTKLSLPLWLARILAIVGGDEALVDEEPVPFVELLPPDMFSTKVMNAIKTDPVALDLHSINSHFFSLAIKWIMLFSEKELANVVSELLLQRAQELNHHASSLSIDLNADSTGKNSANTNIATSTFLLKLEEMEKEIYKKSHESYKDTKRWMFKK"
,1,"Seh1 (natural protein, UniProt P53011 1-349, looked up) MQPFDSGHDDLVHDVVYDFYGRHVATCSSDQHIKVFKLDKDTSNWELSDSWRAHDSSIVAIDWASPEYGRIIASASYDKTVKLWEEDPDQEECSGRRWNKLCTLNDSKGSLYSVKFAPAHLGLKLACLGNDGILRLYDALEPSDLRSWTLTSEMKVLSIPPANHLQSDFCLSWCPSRFSPEKLAVSALEQAIIYQRGKDGKLHVAAKLPGHKSLIRSISWAPSIGRWYQLIATGCKDGRIRIFKITEKLSPLASEESLTNSNMFDNSADVDMDAQGRSDSNTEEKAELQSNLQVELLSEHDDHNGEVWSVSWNLTGTILSSAGDDGKVRLWKATYSNEFKCMSVITAQQ"
1,,"Sld5 (natural protein, UniProt Q03406 1-294, looked up) MDINIDDILAELDKETTAVDSTKITQGSSSTTHRDANTIVGSSLDLNDKTQIYVSPQQDFSDLMKSWKNERCSPELLPYPHQLMKRLLNRISMQSQLIENISMGFLDMQNASNANPPMPNESKLPLLCMETELERLKFVIRSYIRCRLSKIDKFSLYLRQLNEDENSLISLTDLLSKDEIKYHDTHSLIWLKLVNDSILKYMPEELQAINDTEGSVNMIDEPDWNKFVFIHVNGPPDGKWNEDPLLQENEFGKPCYTVTIPDLKEEVELTIGSIYVMRYEVIRDLLRDDKVALI"
,1,"Nup85 (natural protein, UniProt P46673 1-744, looked up) MTIDDSNRLLMDVDQFDFLDDGTAQLSNNKTDEEEQLYKRDPVSGAILVPMTVNDQPIEKNGDKMPLKFKLGPLSYQNMAFITAKDKYKLYPVRIPRLDTSKEFSAYVSGLFEIYRDLGDDRVFNVPTIGVVNSNFAKEHNATVNLAMEAILNELEVFIGRVKDQDGRVNRFYELEESLTVLNCLRTMYFILDGQDVEENRSEFIESLLNWINRSDGEPDEEYIEQVFSVKDSTAGKKVFETQYFWKLLNQLVLRGLLSQAIGCIERSDLLPYLSDTCAVSFDAVSDSIELLKQYPKDSSSTFREWKNLVLKLSQAFGSSATDISGELRDYIEDFLLVIGGNQRKILQYSRTWYESFCGFLLYYIPSLELSAEYLQMSLEANVVDITNDWEQPCVDIISGKIHSILPVMESLDSCTAAFTAMICEAKGLIENIFEGEKNSDDYSNEDNEMLEDLFSYRNGMASYMLNSFAFELCSLGDKELWPVAIGLIALSATGTRSAKKMVIAELLPHYPFVTNDDIEWMLSICVEWRLPEIAKEIYTTLGNQMLSAHNIIESIANFSRAGKYELVKSYSWLLFEASCMEGQKLDDPVLNAIVSKNSPAEDDVIIPQDILDCVVTNSMRQTLAPYAVLSQFYELRDREDWGQALRLLLLLIEFPYLPKHYLVLLVAKFLYPIFLLDDKKLMDEDSVATVIEVIETKWDDADEKSSNLYETIIEADKSLPSSMATLLKNLRKKLNFKLCQAFM"
,1,"Sec13 (natural protein, UniProt Q04491 1-297, looked up) MVVIANAHNELIHDAVLDYYGKRLATCSSDKTIKIFEVEGETHKLIDTLTGHEGPVWRVDWAHPKFGTILASCSYDGKVLIWKEENGRWSQIAVHAVHSASVNSVQWAPHEYGPLLLVASSDGKVSVVEFKENGTTSPIIIDAHAIGVNSASWAPATIEEDGEHNGTKESRKFVTGGADNLVKIWKYNSDAQTYVLESTLEGHSDWVRDVAWSPTVLLRSYLASVSQDRTCIIWTQDNEQGPWKKTLLKEEKFPDVLWRASWSLSGNVLALSGGDNKVTLWKENLEGKWEPAGEVHQ"
